Measured values from the supplement of paper PMC10567573.

B1: PRPH (parent)
chain: RTFGPPPSLSPGAFSYSSSSRFSS
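Note: lentivirally expressed fusions sorted by FACS into six bins by GFP to DsRed ratio, PSI derived from sequencing read proportions per bin multiplied by bin number.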

Variants of: B1
Assay: protein stability index of a GFP-peptide fusion (GPS, HEK-293T) (PSI 1-6); higher = more stable
Conditions: c terminus: a fixed tail appended
In the case of S18F, the protein stability index is reported as 2.45.
S18K gave a protein stability index of 3.9.
S18C gave a protein stability index of 3.5.
With S18M the protein stability index was 2.75.
In the case of S18H, the protein stability index is reported as 2.8.
Work on S18A yielded a protein stability index of 2.76.
S24C gave a protein stability index of 2.83.
Variant S24K has a protein stability index of 3.89.
Work on S24Y yielded a protein stability index of 2.46.
In the case of S24N, the protein stability index is reported as 3.44.
S24V showed a protein stability index of 2.3.
Variant S24F has a protein stability index of 1.96.
Variant S24E has a protein stability index of 3.38.
For S24W, the protein stability index was 2.82.
In the case of A13I, the protein stability index is reported as 3.33.
Work on A13Y yielded a protein stability index of 3.14.
Variant A13M has a protein stability index of 3.29.
A13T showed a protein stability index of 3.45.
A13L showed a protein stability index of 3.18.
Work on A13E yielded a protein stability index of 3.51.
In the case of R21F, the protein stability index is reported as 2.25.
In the case of R21I, the protein stability index is reported as 2.44.
R21K showed a protein stability index of 3.5.
R21N gave a protein stability index of 3.03.
R21D gave a protein stability index of 3.3.
Variant R21Y has a protein stability index of 2.08.
For G12M, the protein stability index was 2.89.
G12D showed a protein stability index of 3.24.
With G12F the protein stability index was 2.16.
G12W showed a protein stability index of 2.25.
With G12V the protein stability index was 3.36.
With G12C the protein stability index was 1.96.
For G12Y, the protein stability index was 2.93.
Variant G12K has a protein stability index of 3.21.
S20V showed a protein stability index of 2.86.
With S20H the protein stability index was 2.96.
S20W gave a protein stability index of 2.09.
S20M gave a protein stability index of 3.05.
Variant S20Q has a protein stability index of 3.57.
Work on S20E yielded a protein stability index of 2.76.
With L9S the protein stability index was 3.8.
For L9T, the protein stability index was 3.7.
With L9R the protein stability index was 4.05.
For L9W, the protein stability index was 3.09.
Variant L9K has a protein stability index of 3.8.
Work on L9Q yielded a protein stability index of 3.76.
L9A gave a protein stability index of 3.52.
For F14Y, the protein stability index was 2.87.
Work on F14A yielded a protein stability index of 3.53.
F14G showed a protein stability index of 3.3.
In the case of F14M, the protein stability index is reported as 3.28.
For F14C, the protein stability index was 3.09.
Variant F14K has a protein stability index of 4.23.
S19Q showed a protein stability index of 2.66.
Variant S19L has a protein stability index of 2.93.
S19Y gave a protein stability index of 2.38.
In the case of S19E, the protein stability index is reported as 3.55.
Work on S19M yielded a protein stability index of 2.26.
Variant S19G has a protein stability index of 3.46.
Variant S19R has a protein stability index of 3.5.
For S19H, the protein stability index was 2.81.
Variant S19I has a protein stability index of 2.45.
For S19T, the protein stability index was 3.23.
S19N showed a protein stability index of 3.46.
S23A showed a protein stability index of 3.17.
Work on S23I yielded a protein stability index of 2.52.
S23Q gave a protein stability index of 3.47.
S23C showed a protein stability index of 3.02.
For S23Y, the protein stability index was 2.66.
With S23P the protein stability index was 3.59.
Work on S23R yielded a protein stability index of 3.52.
S23G showed a protein stability index of 2.6.
With F22E the protein stability index was 4.03.
Variant F22Y has a protein stability index of 3.22.
With F22G the protein stability index was 4.16.
For F22K, the protein stability index was 4.21.
Work on F22T yielded a protein stability index of 4.17.
In the case of F22D, the protein stability index is reported as 3.94.
Work on Y16V yielded a protein stability index of 3.69.
Y16E showed a protein stability index of 3.98.
Work on Y16I yielded a protein stability index of 3.31.
With Y16W the protein stability index was 3.36.
Work on G4K yielded a protein stability index of 2.26.
With G4I the protein stability index was 2.55.
With G4M the protein stability index was 3.08.
With G4W the protein stability index was 2.22.
Variant G4V has a protein stability index of 2.37.
G4F showed a protein stability index of 3.06.
Work on G4E yielded a protein stability index of 3.43.
Variant G4H has a protein stability index of 3.2.
G4N showed a protein stability index of 3.12.
G4C showed a protein stability index of 2.9.
Variant F3W has a protein stability index of 3.19.
In the case of F3I, the protein stability index is reported as 3.46.
Work on F3E yielded a protein stability index of 3.72.
For F3Y, the protein stability index was 3.16.
Work on F3M yielded a protein stability index of 3.75.
In the case of T2L, the protein stability index is reported as 2.43.
T2I showed a protein stability index of 2.97.
With T2D the protein stability index was 3.21.
T2P gave a protein stability index of 3.08.
T2H showed a protein stability index of 3.17.
Variant T2G has a protein stability index of 2.89.
Work on T2N yielded a protein stability index of 2.92.
In the case of P11E, the protein stability index is reported as 4.
Work on P11Q yielded a protein stability index of 3.38.
P11D gave a protein stability index of 3.45.
In the case of P11N, the protein stability index is reported as 3.12.
For P11S, the protein stability index was 3.04.
Work on P11G yielded a protein stability index of 2.88.
With P11M the protein stability index was 2.52.
For P11C, the protein stability index was 1.64.
R1K gave a protein stability index of 2.74.
In the case of R1W, the protein stability index is reported as 2.81.
R1H showed a protein stability index of 3.24.
In the case of R1M, the protein stability index is reported as 2.29.
R1Y showed a protein stability index of 2.4.
Work on R1C yielded a protein stability index of 2.59.
In the case of R1F, the protein stability index is reported as 2.52.
R1Q gave a protein stability index of 3.62.
In the case of R1T, the protein stability index is reported as 2.63.
In the case of R1A, the protein stability index is reported as 3.18.
P7G gave a protein stability index of 2.92.
For P7H, the protein stability index was 3.15.
In the case of P7W, the protein stability index is reported as 2.08.
In the case of P7I, the protein stability index is reported as 2.53.
For P7D, the protein stability index was 3.45.
P7S showed a protein stability index of 3.26.
Variant P7C has a protein stability index of 1.6.
Variant S15V has a protein stability index of 2.74.
S15T showed a protein stability index of 3.48.
In the case of S15E, the protein stability index is reported as 3.22.
S15Y showed a protein stability index of 2.56.
S15N gave a protein stability index of 3.37.
Variant S15M has a protein stability index of 2.65.
With S15D the protein stability index was 3.49.
S15I showed a protein stability index of 2.95.
S17D showed a protein stability index of 3.06.
Work on S17Y yielded a protein stability index of 3.07.
S17Q showed a protein stability index of 3.1.
S17A showed a protein stability index of 3.02.
S17L showed a protein stability index of 2.53.
In the case of S17R, the protein stability index is reported as 2.99.
S17P gave a protein stability index of 3.16.
S17N showed a protein stability index of 3.71.
P6Q gave a protein stability index of 3.03.
P6S showed a protein stability index of 3.37.
Variant P6F has a protein stability index of 2.15.
P6G showed a protein stability index of 3.02.
P6N gave a protein stability index of 3.1.
S10N gave a protein stability index of 3.15.
With S10F the protein stability index was 2.67.
With S10I the protein stability index was 3.19.
With S10H the protein stability index was 3.13.
S10G gave a protein stability index of 3.46.
In the case of S10R, the protein stability index is reported as 3.15.
Work on S10E yielded a protein stability index of 3.23.
In the case of S8V, the protein stability index is reported as 2.59.
Work on S8I yielded a protein stability index of 2.78.
For S8N, the protein stability index was 3.5.
With P5T the protein stability index was 3.29.
With P5E the protein stability index was 3.23.
In the case of P5S, the protein stability index is reported as 2.99.
Work on P5G yielded a protein stability index of 2.84.
With P5I the protein stability index was 2.5.
P5M showed a protein stability index of 2.6.
P5Y showed a protein stability index of 2.65.
